This note sets out measurements from article PMC7659722 (The Journal of Cell Biology, 2020).

This data set deals with the molecule itself. The experiment in a line: SDS-PAGE.

B1: recombinant human FIT2 WT, 3FLAG-tagged (enzyme, UniProt Q8N6M3 1-262, looked up)
chain: MEHLERCEWLLRGTLVRAAVRRYLPWALVASMLAGSLLKELSPLPESYLSNKRNVLNVYFVKVAWAWTFCLLLPFIALTNYHLTGKAGLVLRRLSTLLVGTAIWYICTSIFSNIEHYTGSCYQSPALEGVRKEHQSKQQCHQEGGFWHGFDISGHSFLLTFCALMIVEEMSVLHEVKTDRSHCLHTAITTLVVALGILTFIWVLMFLCTAVYFHNLSQKVFGTLFGLLSWYGTYGFWYPKAFSPGLPPQSCSLNLKQDSYKK
For B1, the binding result was “binds”.
